Biological target: T1, NAE (NEDD8 E1; Dac-NAE1-UBA3) (UniProt Q13564 1-534; Q8TBC4 1-463)
T1 construct: Co-expressed in Sf21 cells from pFastBacDual; not shown: Dac tag
T1 sequence (looked up) 1: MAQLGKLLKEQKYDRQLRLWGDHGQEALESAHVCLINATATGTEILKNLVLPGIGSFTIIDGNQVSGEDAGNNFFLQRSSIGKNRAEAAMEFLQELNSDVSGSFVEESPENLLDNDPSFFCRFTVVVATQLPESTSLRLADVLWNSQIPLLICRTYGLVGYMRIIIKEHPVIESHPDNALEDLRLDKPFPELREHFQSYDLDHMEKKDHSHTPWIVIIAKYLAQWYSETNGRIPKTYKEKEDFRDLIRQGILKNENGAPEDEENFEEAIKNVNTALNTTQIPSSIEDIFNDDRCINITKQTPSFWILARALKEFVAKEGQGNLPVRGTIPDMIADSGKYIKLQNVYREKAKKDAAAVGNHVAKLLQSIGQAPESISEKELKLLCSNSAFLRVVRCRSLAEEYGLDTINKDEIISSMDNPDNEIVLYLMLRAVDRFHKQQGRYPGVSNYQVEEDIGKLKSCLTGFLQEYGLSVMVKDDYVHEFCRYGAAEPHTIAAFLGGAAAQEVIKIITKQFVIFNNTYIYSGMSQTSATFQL
T1 sequence (looked up) 2: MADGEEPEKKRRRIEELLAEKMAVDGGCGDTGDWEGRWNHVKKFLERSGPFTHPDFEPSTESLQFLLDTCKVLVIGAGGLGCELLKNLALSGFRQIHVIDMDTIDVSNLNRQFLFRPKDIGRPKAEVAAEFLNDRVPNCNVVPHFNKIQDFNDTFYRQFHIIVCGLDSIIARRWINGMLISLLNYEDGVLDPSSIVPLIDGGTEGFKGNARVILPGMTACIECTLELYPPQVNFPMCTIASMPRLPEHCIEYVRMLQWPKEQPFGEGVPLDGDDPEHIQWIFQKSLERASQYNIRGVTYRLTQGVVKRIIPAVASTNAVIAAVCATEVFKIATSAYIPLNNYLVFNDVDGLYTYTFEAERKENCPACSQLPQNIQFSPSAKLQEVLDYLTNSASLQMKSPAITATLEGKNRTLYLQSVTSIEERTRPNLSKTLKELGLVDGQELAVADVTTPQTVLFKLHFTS
Experiment: covalent activity-based labelling, SDS-PAGE (FIG. 3C)
Protocol: E2 probes (14 μM) were mixed with E1 enzyme (3.5 μM) and diluted 10× reaction buffer (500 mM Na_2HPO_4 pH 8) or 10×Ub-ATP buffer (500 mM Na_2HPO_4 pH 8, 20 μM ubiquitin, 20 mM ATP) to a final volume of 15-50 μL. Reactions were incubated at 30° C. and 15 μL aliquots were taken at 1 and 5 h time points which were quenched with 5 μL of reducing SDS-gel loading buffer (NuPAGE LDS loading buffer (4×), 715 mM 2-mercaptoethanol). The quenched reaction solutions were boiled for 5 minute at 100° C. and then 4 μL was analysed by SDS-PAGE (NuPAGE Bis-Tris, 4-12%).

binding result: binds
B1: UBE2M-=CN (enzyme)
chain: MGSSHHHHHHSSGLEVLFQGPGSPEFPGVDSKAAAMIKLFSLKQQKKEEESAGGTKGSSKKASAAQLRIQKDINELNLPKTCDISFSDPDDLLNFKLVICPDEGFYKSGKFVFSFKVGQGYPHDPPKVKCETMVYHPNIDLEGNVCLNILREDWKPVLTINSIIYGLQYLFLEPNPEDPLNKEAAEVLQNNRRLFEQNVQRSMRGGYIGSTYFERCLK
modifications: labelled with TDMA 1 (thioacrylonitrile); 4 of 5 cysteines modified
notes: Legend notes a double band due to degradation of UBE2M

From patent US10829799 (UNIVERSITY COURT OF THE UNIVERSITY OF DUNDEE, dated 2020)
